These results are taken from paper PMC10821591.

The assay has as its target GAP domain of human Ral GTPase Accelerating Protein α1 (residues 1807-1988) (human) (UniProt Q6GYQ0). Description: ITC; MicroCal iTC200, 20 °C; cell: RalGAPα1(GAP) 15 μM; syringe: MAF1 150 μM, 19 injections of 2 μl; 20 mM Hepes pH 7.5, 150 mM NaCl, 1 mM TCEP; one-site model.

Chain of GAP domain of human Ral GTPase Accelerating Protein α1 (residues 1807-1988) (human) (Q6GYQ0 1807-1988): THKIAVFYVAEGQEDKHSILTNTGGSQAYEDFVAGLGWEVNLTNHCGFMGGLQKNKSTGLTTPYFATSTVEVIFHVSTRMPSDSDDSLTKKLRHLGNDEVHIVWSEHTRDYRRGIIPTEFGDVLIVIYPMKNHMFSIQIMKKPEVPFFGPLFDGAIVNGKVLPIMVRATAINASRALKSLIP

What is called Kd is the free concentration of one partner at which half of the binding sites on the other are occupied at equilibrium, for simple one-to-one binding. The substance “MAF1b STL-RKK (MAF1b 173-443, S438R/T439K/L441K) (domain or fragment)” returned an equilibrium dissociation constant (Kd) of 0.518 µM.
Broadly, the stoichiometry N is the number of molecules, sites or subunits per partner or assembly. Take “T. gondii Mitochondrial Association Factor 1b, structured C-terminal domain (residues 173-443) (domain or fragment)”: the Kd came to 0.334 µM, the dH was -61.1 kJ/mol and the stoichiometry N came out at 1.
